Like-named read-outs stand apart in the source and are kept apart here.
T1: marmoset monkey IL4Rα-his protein (marmoset monkey)
T1 construct: Custom made by Sino biological; no cleavage site stated; also called cal-IL4Rα-his; Cal-IL4Rα
T1 chain: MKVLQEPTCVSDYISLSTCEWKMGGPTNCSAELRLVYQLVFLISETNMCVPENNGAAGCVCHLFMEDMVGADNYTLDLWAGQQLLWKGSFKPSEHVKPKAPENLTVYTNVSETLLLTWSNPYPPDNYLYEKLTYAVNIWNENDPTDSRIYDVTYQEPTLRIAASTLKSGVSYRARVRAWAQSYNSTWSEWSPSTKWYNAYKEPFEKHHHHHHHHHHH


Legend:
[1] = target: T2, human IL4Rα expressed on 293F-IL4Rα cells (human, UniProt P24394 26-825); test: flow cytometry, blocks biotin-IL4 binding to 293F-IL4Rα cells
T2 construct: whole, on cells; also called cell surface human IL4Rα
Protocol: Then, 1×10⁵ cells per well in 96 well-plates were incubated in 100 μL of the anti-IL4Rα antibodies or controls of various concentrations (starting at 80 nM with a 4-fold serial dilution) in FACS buffer for 40 minutes on ice. The plates were washed twice with FACS buffer, and added and incubated for 40 minutes at 4° C. in dark with 100 μl/well 1.67 nM biotin-labeled human IL4 protein (Sino biological inc., Cat #11846-HNAE). The plates were washed twice with FACS buffer, and then added and incubated for 40 minutes at 4° C. in dark with 100 μl/well R-Phycoerythrin Streptavidin (1:500 dilution in FACS buffer, Jackson Immunoresearch, Cat #016-110-084). Cells were washed twice and resuspended in FACS buffer. Fluorescence was measured using a Becton Dickinson FACS Canto II-HTS equipment. Data was analyzed using Graphpad Prism software and IC₅₀ values were reported.

[2] = target: T1, marmoset monkey IL4Rα-his protein; test: indirect ELISA on coated cal-IL4Rα-his
[3] = target: T3, recombinant human IL4Rα-his protein (in house made) (human, UniProt P24394 26-232, limits assumed); test: competitive ELISA, blocks biotin-IL4 binding to coated IL4Rα-his
T3 construct: also called Human IL4Ra-his
Protocol: Serially diluted anti-IL4Rα antibodies or the controls (starting at 80 nM with a 4-fold serial dilution) in 2.5% w/v non-fatty milk in PBST, 100 μl per well, were added to the IL4Rα bound plates, and incubated with the human IL4Rα-his proteins at 37° C. for 40 minutes. Plates were washed 4 times using wash buffer, and then added and incubated for 40 minutes at 37° C. with 100 μl/well of 0.56 nM biotin-labeled human IL4 protein (Sino biological inc., Cat #11846-HNAE). Plates were washed again using wash buffer. Thereafter, the plates were added with 100 μl/well of streptavidin conjugated HRP (1:10000 dilution in PBST buffer, Jackson Immunoresearch, Cat #016-030-084) and incubated for 40 minutes at 37° C. Plates were washed again using wash buffer. Finally, TMB was added and the reaction was stopped using 1M H₂SO₄, and the absorbance was read at 450 nm. Data was analyzed using Graphpad Prism software and IC₅₀ values were reported.

[4] = target: T2, human IL4Rα expressed on 293F-IL4Rα …; test: flow cytometry, 293F-IL4Rα cells
Protocol: Then, 2×10⁵ cells per well in 96 well-plates were incubated in 100 μL of the anti-IL4Rα antibodies or controls of various concentrations (starting at 80 nM with a 4-fold serial dilution) in FACS buffer for 40 minutes on ice. […] Following an incubation of 40 minutes at 4° C. in dark, cells were washed three times and resuspended in FACS buffer. Fluorescence was measured using a Becton Dickinson FACS Canto II-HTS equipment. Data was analyzed using Graphpad Prism software and EC₅₀ values were reported.

[5] = target: T1, marmoset monkey IL4Rα-his protein; test: indirect ELISA, coated cal-IL4Rα-his
[6] = target: T3, recombinant human IL4Rα-his protein (in …); test: SPR (Biacore), antibody captured, IL4Rα-his flowed
[7] = target: T3, recombinant human IL4Rα-his protein (in …); test: capture ELISA, biotin-IL4Rα-his
[8] = target: T4, cynomolgus monkey IL4Rα-his protein (cynomolgus monkey, UniProt A0A2K5V580 33-239); test: indirect ELISA on coated cynomolgus IL4Rα-his
T4 construct: Bought protein; also called Cynomolgus IL4Rα; Cyno-IL4Rα-his; not shown: his tag

[9] = target: T3, recombinant human IL4Rα-his protein (in …); test: competitive ELISA: antibody mixed with biotin human IL4Rα-his, competitor plate-coated Benchmark
[10] = target: T3, recombinant human IL4Rα-his protein (in …); test: capture ELISA: antibody captured on anti-IgG Fc plate, biotin human IL4Rα-his detected
[11] = target: T3, recombinant human IL4Rα-his protein (in …); test: SPR (Biacore), antibody captured, IL4Rα-his flowed; remark: listed apart in the source
[12] = target: T2, human IL4Rα expressed on 293F-IL4Rα …; test: flow cytometry on 293F-IL4Rα cells
[13] = target: T3, recombinant human IL4Rα-his protein (in …); test: competitive ELISA: coated human IL4Rα-his, blocked ligand biotin human IL4
[14] = target: T2, human IL4Rα expressed on 293F-IL4Rα …; test: flow cytometry on 293F-IL4Rα cells, blocked ligand biotin human IL4
[15] = target: human IL4Rα expressed on HEK293T-IL4Rα-STAT6-STAT6LUC-LB2 cells (human, UniProt P24394 26-825); test: cell-based or functional assay
[16] = target: T3, recombinant human IL4Rα-his protein (in …); test: competitive ELISA, blocks biotin-IL4Rα-his binding to coated Benchmark (competitor)
Protocol: The ability of the anti-IL4Rα antibodies of the disclosure to block benchmark-human IL4Rα binding was measured in a competitive ELISA assay. Briefly, the benchmark was coated on 96-well micro plates at 2 μg/mL in PBS, 100 μl per well, and incubated overnight at 4° C. The next day, plates were washed with wash buffer (PBS+0.05% w/v Tween-20, PBST), and blocked with 5% w/v non-fatty milk in PBST for 2 hours at 37° C. tiring plate blocking, the anti-IL4Rα antibodies of the disclosure or controls were diluted with biotin labeled human IL4Rα-his proteins (prepared in-house with SEQ ID NO: 57, 0.55 nM in 2.5% w/v non-fatty milk in PBST), starting at 100 nM with a 4-fold serial dilution, and incubated at 25° C. for 40 minutes. After plate washing, the antibody/IL4Rα-his mixtures were added to benchmark coated plates, 100 μl per well. After incubation at 37° C. for 40 minutes, plates were washed using wash buffer. Then the plates were added and incubated with 100 μl/well streptavidin conjugated HRP for 40 minutes at 37° C. to detect biotin-labeled human IL4Rα-his bound to plates. Plates were washed again using wash buffer. Finally, TMB was added and the reaction was stopped using 1M H₂SO₄, and the absorbance was read at 450 nm. Data was analyzed using Graphpad Prism software and IC₅₀ values were reported.

[17] = target: T4, cynomolgus monkey IL4Rα-his protein; test: indirect ELISA, coated cyno IL4Rα-his

IC50 [1]	EC50 [2]	IC50 [3]	EC50 [4]	EC50 [5]	Kd [6]	EC50 [7]	EC50 [8]	IC50 [9]	EC50 [10]	Kd [11]	koff [11]	kon [11]	EC50 [12]	IC50 [13]	IC50 [14]	Inhibition on IL4 induced STAT6 phosphorylation (IC50, nM) [15]	Inhibition on IL13 induced STAT6 phosphorylation (IC50, nM) [15]	IC50 [16]	EC50 [17]	Binder
0.6 nM	1.06 nM	1.02 nM	0.52 nM	1.06 nM	3.88 nM	0.24 nM	137 nM	0.763 nM	0.237 nM	3.69 nM	0.00113 s⁻¹	306000 M⁻¹ s⁻¹	0.517 nM	1.02 nM	0.601 nM	0.26 nM	0.66 nM	0.76 nM	137 nM	huB8G11F2B7G5E8-V14 (antibody, human IgG4 S228P, kappa, V domains shown, Humanized, human IgG4/kappa; also called huBSG11F2B7G5E8-V14) VH: EVQLVQSGAEVKKPGATVKISCKVSGFNIKDTYMHWVKQAPGKGLEWMGRIDPTNGYTIYASKFQGKATITADTSSNTAYMELSSLRSEDTAVYHCVSRRPWFAYWGQGTLVTVSS VL: DIVMTQTPLSLSVTPGQPASISCRSSQSIVHSNGNTYLEWYLQKPGQSPQLLIYKVTNRFSGVPDRFSGSGSGTDFTLKISRVEAEDVGVYYCFQGSHVPYTFGQGTKLEIKR
0.51 nM	0.726 nM	0.82 nM	0.41 nM	0.73 nM	5.5 nM	0.27 nM	7.12 nM	1.24 nM	0.275 nM	3.21 nM	0.00185 s⁻¹	577000 M⁻¹ s⁻¹	0.414 nM	0.825 nM	0.513 nM	0.3 nM	0.81 nM	1.24 nM	7.12 nM	huB8G11F2B7G5E8-V4 (antibody, human IgG4 S228P, kappa, V domains shown, Humanized, human IgG4/kappa; also called huBSG11F2B7G5E8-V4) VH: EVQLVQSGAEVKKPGATVKISCKASGFNIKDTYMHWVKQAPGKGLEWMGRIDPTNGYTIYASKFQGKATITADTSSNTAYMELSSLRSEDTAVYHCVSRRPWFAYWGQGTLVTVSS VL: DIVMTQTPLSLSVTPGQPASISCRSSQSIVHSNGNTYLEWYLQKPGQSPQLLIYKVTNRFSGVPDRFSGSGSGTDFTLKISRVEAEDVGVYYCFQGSHVPYTFGQGTKLEIKR
0.54 nM	0.799 nM	1 nM	0.43 nM	0.8 nM	4.1 nM	0.27 nM	914 nM	1.2 nM	0.274 nM	3.1 nM	0.00162 s⁻¹	521000 M⁻¹ s⁻¹	0.426 nM	1 nM	0.538 nM	0.4 nM	0.63 nM	1.2 nM	914 nM	huB8G11F2B7G5E8-V2 (antibody, human IgG4 S228P, kappa, V domains shown, Humanized, human IgG4/kappa; also called huBSG11F2B7G5E8-V2) VH: EVQLVQSGAEVKKPGATVKISCKVSGFNIKDTYMHWVKQAPGKGLEWVGRIDPTNGYTIYASKFQGKATITADTSSNTAYMELSSLRSEDTAVYHCVSRRPWFAYWGQGTLVTVSS VL: DIVMTQTPLSLSVTPGQPASISCRSSQSIVHSNGNTYLEWYLQKPGQSPQLLIYKVTNRFSGVPDRFSGSGSGTDFTLKISRVEAEDVGVYYCFQGSHVPYTFGQGTKLEIKR
